Patent US20170089914A1 (Merck Sharp & Dohme, published 2017)

Molecular target: pembrolizumab F(ab')2 protein
Assay: SPR (BIAcore T200), Fab-SASA captured on BSA chip, pembrolizumab F(ab')2 as analyte, 1:1 fit

pembrolizumab F(ab')2 protein, sequence (chain, as listed by the source, chain 1 of 2): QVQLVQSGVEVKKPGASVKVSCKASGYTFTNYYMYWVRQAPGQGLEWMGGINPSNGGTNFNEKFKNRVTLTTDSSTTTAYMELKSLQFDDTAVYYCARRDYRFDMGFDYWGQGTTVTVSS
pembrolizumab F(ab')2 protein, sequence (chain, as listed by the source, chain 2 of 2): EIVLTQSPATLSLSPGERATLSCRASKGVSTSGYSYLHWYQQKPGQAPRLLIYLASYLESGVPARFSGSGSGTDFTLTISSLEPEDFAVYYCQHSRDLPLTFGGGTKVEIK

| Binder | koff [s⁻¹] |
| --- | --- |
| A30633 Fab antibody (Fab-SASA secreted to culture medium) (Fab, V domains shown, Rabbit variable domains from a Fab phage library; Tested as Fab-SASA expressed from the pFASEBA vector and captured on BSA via SASA) VH: QSLEESGGRLVTPGTPLTLTCTVSGFSLSTNDMNWVRQAPGKGLEWIGVIYSDDTPDYATWAKGRFTISRTSTTVDLKITSPTTEDTATYFCARGHYDSAVYAYALNIWGPGTLVTVSS VL: ELVMTQTPSSVSAAVGGTVTITCQASQSLSNLLAWYQQKPGQPPKLLIYGASNLESGVPSRFRGSGSGTDFTLTISGMKAEDAATYYCQGGHYSGLTFGNGTNVEIK | 0.0012 |
| A30514 Fab antibody (Fab-SASA secreted to culture medium) (Fab, V domains shown, Rabbit variable domains from a Fab phage library; Tested as Fab-SASA expressed from the pFASEBA vector and captured on BSA via SASA) VH: QEQLVESGGRLVTPGTPLTLTCTASGFSLGSDFMSWVRQAPGKGLEWIGYIDPRSDIPYYASWAKGRFTISKTSTTVDLKITSPTTEDTATYFCARDLNAGYFNGIFYIWGPGTLVTVSS VL: ELVMTQTPSSVSAAVGDTVTINCQASETVATLLAWYQQKPGQPPKLLIYGASNLESGVPSRFRGSGSGTEFTLTISGMKAEDAATYYCQYGYISTGSNTFGAGTNVEIK | 6.5e-05 |
| A30523 Fab antibody (Fab-SASA secreted to culture medium) (Fab, V domains shown, Rabbit variable domains from a Fab phage library; Tested as Fab-SASA expressed from the pFASEBA vector and captured on BSA via SASA) VH: QEQLVESGGRLVTPGTPLTLTCTASGFSLGSDFMSWVRQAPGKGLEWIGYIDPRSDIPYYASWAKGRFTISKTSTTVDLKITSPTTEDTATYFCARDLNAGYFNGIFYIWGPGTLVTVSS VL: ELDMTQTPSSTSEPVGGTVTINCQASQTISSYLSWYQQKPGHPPKLLIYDASDLASGVPSRFSGSRSGTQFTLTISGVQCDDAATYYCLGVYDYRSDDGAAFGGGTELEIL | 0.00034 |
